Reference: article PMC3936710
“And” between values parts separate entries of the source, which are not always exact repeats. Identical values can stand only once.

Columns and labels:
[1] = target: T1, TRF2 (UniProt Q15554); test: single-molecule DNA tightrope; details: Tightrope assays at 75-225 mM ionic strength (buffer, pH and temperature not in the material); AFM samples diluted 10-fold in 25 mM NaOAc, 25 mM HEPES-KOH pH 7.
T1 sequence: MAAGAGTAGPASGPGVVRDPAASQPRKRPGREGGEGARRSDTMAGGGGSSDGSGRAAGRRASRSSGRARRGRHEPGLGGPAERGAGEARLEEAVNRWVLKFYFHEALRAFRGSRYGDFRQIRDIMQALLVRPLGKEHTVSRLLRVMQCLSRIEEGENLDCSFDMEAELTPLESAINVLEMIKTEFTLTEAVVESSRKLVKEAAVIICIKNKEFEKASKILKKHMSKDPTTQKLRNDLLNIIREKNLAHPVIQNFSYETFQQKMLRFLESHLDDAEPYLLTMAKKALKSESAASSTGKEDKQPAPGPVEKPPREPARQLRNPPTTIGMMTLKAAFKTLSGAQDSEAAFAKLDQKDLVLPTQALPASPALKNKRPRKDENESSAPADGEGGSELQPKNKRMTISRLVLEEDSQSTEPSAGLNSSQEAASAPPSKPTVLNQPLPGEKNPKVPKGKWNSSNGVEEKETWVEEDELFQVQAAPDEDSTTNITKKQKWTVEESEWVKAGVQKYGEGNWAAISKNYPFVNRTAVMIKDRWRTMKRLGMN

[2] = target: T2, TRF2ΔB (UniProt Q15554); test: single-molecule DNA tightrope; details: 125 mM ionic strength; Tightrope assays at 75-225 mM ionic strength (buffer, pH and temperature not in the material); AFM samples diluted 10-fold in 25 mM NaOAc, 25 mM HEPES-KOH pH 7.
T2 sequence: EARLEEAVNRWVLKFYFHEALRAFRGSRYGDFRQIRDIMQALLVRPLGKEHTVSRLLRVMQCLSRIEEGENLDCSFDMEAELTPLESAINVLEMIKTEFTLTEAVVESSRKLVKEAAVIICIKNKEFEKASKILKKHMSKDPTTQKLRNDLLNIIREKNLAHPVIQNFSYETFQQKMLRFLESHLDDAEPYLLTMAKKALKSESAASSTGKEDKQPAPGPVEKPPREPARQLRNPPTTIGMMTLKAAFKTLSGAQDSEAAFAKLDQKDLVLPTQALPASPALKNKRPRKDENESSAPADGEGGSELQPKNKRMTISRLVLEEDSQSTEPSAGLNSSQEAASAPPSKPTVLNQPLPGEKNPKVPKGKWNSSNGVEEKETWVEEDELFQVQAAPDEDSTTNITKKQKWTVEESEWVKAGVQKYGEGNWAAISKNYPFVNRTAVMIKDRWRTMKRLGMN

[3] = test system: TRF1 Myb domain; test: cited; details: Tightrope assays at 75-225 mM ionic strength (buffer, pH and temperature not in the material); AFM samples diluted 10-fold in 25 mM NaOAc, 25 mM HEPES-KOH pH 7.; cited from earlier work
[4] = test system: TRF2 Myb domain; test: cited; details: Tightrope assays at 75-225 mM ionic strength (buffer, pH and temperature not in the material); AFM samples diluted 10-fold in 25 mM NaOAc, 25 mM HEPES-KOH pH 7.; cited from earlier work
[5] = target: T2, TRF2ΔB; test: AFM; details: linear T270; Tightrope assays at 75-225 mM ionic strength (buffer, pH and temperature not in the material); AFM samples diluted 10-fold in 25 mM NaOAc, 25 mM HEPES-KOH pH 7.
[6] = target: T3, TRF1 (UniProt P54274); test: single-molecule DNA tightrope; details: Tightrope assays at 75-225 mM ionic strength (buffer, pH and temperature not in the material); AFM samples diluted 10-fold in 25 mM NaOAc, 25 mM HEPES-KOH pH 7.
T3 sequence: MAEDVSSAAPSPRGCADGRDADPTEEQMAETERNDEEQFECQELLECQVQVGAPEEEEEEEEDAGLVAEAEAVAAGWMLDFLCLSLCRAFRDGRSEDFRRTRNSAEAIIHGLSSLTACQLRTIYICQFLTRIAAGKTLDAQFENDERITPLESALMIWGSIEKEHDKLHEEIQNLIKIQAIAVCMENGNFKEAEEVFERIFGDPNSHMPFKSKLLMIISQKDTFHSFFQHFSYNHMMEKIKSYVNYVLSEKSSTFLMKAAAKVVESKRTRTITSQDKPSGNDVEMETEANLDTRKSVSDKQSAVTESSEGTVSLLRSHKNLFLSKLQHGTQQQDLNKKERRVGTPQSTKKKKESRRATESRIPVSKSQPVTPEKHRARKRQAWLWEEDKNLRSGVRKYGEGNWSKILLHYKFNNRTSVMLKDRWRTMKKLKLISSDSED

TTAGGGTTAGGGTTAGGGTTAGGGTTAGGGTTAGGGTTAGGGTTAGGGTTAGGGTTAGGG (double strand) [Tel10 telomeric region (TTAGGG)10]
binding signal (s (attached lifetime)) [1]: 6.7

lambda DNA
binding signal (QDs per field of view (TRF2 13.3)) [2]: 1.4

telomeric DNA of cited Myb domain study
Kd [3]: 200 nM
Kd [4]: 750 nM

T270 telomeric region (TTAGGG)270
binding signal (% of DNA-bound QDs at telomeric region) [5]: 66
binding signal (s (attached lifetime)) [6]: 17.3 and 9.2
binding signal (s (attached lifetime)) [1]: 14.8 and 10.3
